Experimental data taken from paper PMC8140157, “RTEL1 influences the abundance and localization of TERRA RNA” (Nature Communications, 2020).
Residue numbers refer to the chain shown, from its start.

Experiments:
[1] = target: T1, RTEL1∆762 (human, UniProt Q9NZ71-6 762-1300); assay: fluorescence anisotropy; RNA folded in 100 mM KCl; text: <10 nM, at detection limit; 20 mM Tris pH 7.5, 50 mM KCl, 0.5 mM TCEP, 0.5 mM MgCl2, 10% glycerol, 0.1% IGEPAL, room temperature 30 min; oligos refolded in 10 mM Tris pH 7.5, 100 mM KCl; EMSA legends give 150 or 300 mM KCl; details: protein: recombinant; tags: 6xHis; chain copies: 2; label: 5' fluorescein; G4
T1 sequence: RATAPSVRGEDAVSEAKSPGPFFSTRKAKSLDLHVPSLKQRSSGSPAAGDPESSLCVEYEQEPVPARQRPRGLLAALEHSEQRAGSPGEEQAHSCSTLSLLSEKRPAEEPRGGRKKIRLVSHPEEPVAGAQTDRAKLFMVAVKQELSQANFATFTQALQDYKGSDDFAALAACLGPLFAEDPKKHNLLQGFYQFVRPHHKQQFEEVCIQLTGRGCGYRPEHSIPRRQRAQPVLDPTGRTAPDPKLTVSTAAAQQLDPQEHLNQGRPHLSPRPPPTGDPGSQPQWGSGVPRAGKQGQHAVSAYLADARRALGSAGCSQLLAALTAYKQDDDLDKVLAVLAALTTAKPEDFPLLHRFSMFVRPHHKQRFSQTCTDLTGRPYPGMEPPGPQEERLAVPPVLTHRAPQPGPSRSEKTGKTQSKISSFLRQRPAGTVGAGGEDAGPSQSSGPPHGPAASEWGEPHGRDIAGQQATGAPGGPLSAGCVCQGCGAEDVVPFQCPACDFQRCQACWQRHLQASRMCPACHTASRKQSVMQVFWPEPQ

[2] = target: T2, RTEL1∆1143 (human, UniProt Q9NZ71-6 1143-1300); assay: EMSA; negligible at 5 uM protein; 150 mM KCl; 20 mM Tris pH 7.5, 50 mM KCl, 0.5 mM TCEP, 0.5 mM MgCl2, 10% glycerol, 0.1% IGEPAL, room temperature 30 min; oligos refolded in 10 mM Tris pH 7.5, 100 mM KCl; EMSA legends give 150 or 300 mM KCl; details: protein: recombinant; tags: 6xHis; label: 5' fluorescein; G4
T2 sequence: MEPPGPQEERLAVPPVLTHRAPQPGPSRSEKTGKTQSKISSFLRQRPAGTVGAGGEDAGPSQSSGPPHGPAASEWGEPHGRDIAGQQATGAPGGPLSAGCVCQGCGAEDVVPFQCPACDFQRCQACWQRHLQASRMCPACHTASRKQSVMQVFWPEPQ

[3] = target: T1, RTEL1∆762; assay: competition (fluorescence anisotropy); vs FAM-TERRA-MUT, 1 uM; 20 mM Tris pH 7.5, 50 mM KCl, 0.5 mM TCEP, 0.5 mM MgCl2, 10% glycerol, 0.1% IGEPAL, room temperature 30 min; oligos refolded in 10 mM Tris pH 7.5, 100 mM KCl; EMSA legends give 150 or 300 mM KCl; details: protein: recombinant, tags: 6xHis, chain copies: 2
[4] = target: T3, RTEL1∆762-1097 (human, UniProt Q9NZ71-6 762-1097); assay: as above; details: protein: recombinant, tags: 6xHis
T3 sequence: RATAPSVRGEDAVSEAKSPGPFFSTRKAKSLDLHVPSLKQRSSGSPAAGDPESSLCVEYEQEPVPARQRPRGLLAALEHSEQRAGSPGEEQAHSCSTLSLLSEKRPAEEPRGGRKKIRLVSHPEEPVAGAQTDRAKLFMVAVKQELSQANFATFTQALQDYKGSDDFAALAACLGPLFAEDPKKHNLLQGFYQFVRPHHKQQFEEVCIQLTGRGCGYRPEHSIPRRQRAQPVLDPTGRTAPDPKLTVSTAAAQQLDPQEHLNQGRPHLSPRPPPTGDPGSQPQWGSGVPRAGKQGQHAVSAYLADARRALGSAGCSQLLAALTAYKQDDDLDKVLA

[5] = target: T4, RTEL1∆762R1264H (human, UniProt Q9NZ71-6 762-1300, R1264H); assay: as above; details: protein: recombinant, tags: 6xHis
T4 sequence: T1 sequence with R503H

[6] = target: T1, RTEL1∆762; assay: competition (fluorescence anisotropy); vs FAM-TERRA-MUT, 200 nM; 20 mM Tris pH 7.5, 50 mM KCl, 0.5 mM TCEP, 0.5 mM MgCl2, 10% glycerol, 0.1% IGEPAL, room temperature 30 min; oligos refolded in 10 mM Tris pH 7.5, 100 mM KCl; EMSA legends give 150 or 300 mM KCl; details: protein: recombinant, tags: 6xHis, chain copies: 2
[7] = target: T3, RTEL1∆762-1097; assay: as above; details: protein: recombinant, tags: 6xHis
[8] = target: T4, RTEL1∆762R1264H; assay: as above; details: protein: recombinant, tags: 6xHis
[9] = target: the molecule itself; assay: SEC-MALS; 200-300 µg protein on Superdex 200 10/300 GL, 0.3 ml per minute, 50 mM Hepes pH 7.5, 1 mM TCEP, 150 or 300 mM NaCl; dimer to monomers
[10] = target: T1, RTEL1∆762; assay: competition (fluorescence anisotropy); vs FAM-TERRA-MUT, 200 nM; error in main text misprinted as 0.74 nM; 20 mM Tris pH 7.5, 50 mM KCl, 0.5 mM TCEP, 0.5 mM MgCl2, 10% glycerol, 0.1% IGEPAL, room temperature 30 min; oligos refolded in 10 mM Tris pH 7.5, 100 mM KCl; EMSA legends give 150 or 300 mM KCl; details: protein: recombinant; tags: 6xHis; chain copies: 2; no G4
[11] = target: T1, RTEL1∆762; assay: fluorescence anisotropy; 20 mM Tris pH 7.5, 50 mM KCl, 0.5 mM TCEP, 0.5 mM MgCl2, 10% glycerol, 0.1% IGEPAL, room temperature 30 min; oligos refolded in 10 mM Tris pH 7.5, 100 mM KCl; EMSA legends give 150 or 300 mM KCl; details: protein: recombinant, tags: 6xHis, chain copies: 2, label: 5' fluorescein
[12] = target: T1, RTEL1∆762; assay: fluorescence anisotropy; RNA folded in 0 mM KCl; 20 mM Tris pH 7.5, 50 mM KCl, 0.5 mM TCEP, 0.5 mM MgCl2, 10% glycerol, 0.1% IGEPAL, room temperature 30 min; oligos refolded in 10 mM Tris pH 7.5, 100 mM KCl; EMSA legends give 150 or 300 mM KCl; details: protein: recombinant; tags: 6xHis; chain copies: 2; label: 5' fluorescein; no G4 (folded without KCl)
[13] = target: T1, RTEL1∆762; assay: fluorescence anisotropy; RNA folded in 100 mM KCl; 20 mM Tris pH 7.5, 50 mM KCl, 0.5 mM TCEP, 0.5 mM MgCl2, 10% glycerol, 0.1% IGEPAL, room temperature 30 min; oligos refolded in 10 mM Tris pH 7.5, 100 mM KCl; EMSA legends give 150 or 300 mM KCl; details: protein: recombinant; tags: 6xHis; chain copies: 2; label: 5' fluorescein; no G4

Binder: UUAGGGUUAGGGUUAGGGUUAGGG (structured_RNA) [TERRA (FAM), folded in KCl]
- Kd [1]: 1.3 ± 3.6 nM
- binding result [2]: no binding

Binder: GGTTACCGTTACCGTTACCGTTACCGTTAG (ssDNA) [hTelo-MUT]
- Ki ([3]; no G4): 420 ± 140 nM
- Ki ([4]; no G4): 12600 ± 8470 nM
- Ki ([5]; no G4): 1750 ± 520 nM
- Ki ([6]; no G4): 93 ± 11 nM
- Ki ([7]; no G4): 826 ± 134 nM
- Ki ([8]; no G4): 309 ± 68 nM

B1: RTEL1^∆762 (human RTEL1 residues 762-1300, lacks the helicase domain) (domain or fragment, UniProt Q9NZ71-6 762-1300, looked up)
chain: T1 sequence
notes: residue numbers run to 1300; Cloned between EcoRI and XhoI of pET28; expected monomer mass printed as 62 kDa; source: E. coli BL21, purified (His-trap, Hi-Trap Q, Superdex 200)
- stoichiometry N [9]: 2

Binder: UUACCGUUACCGUUACCGUUACCG (ssRNA) [TERRA-MUT competitor]
- Ki ([3]; no G4): 1450 ± 73 nM
- Ki ([4]; no G4): 16100 ± 15000 nM
- Ki ([5]; no G4): 3810 ± 1450 nM
- Ki ([7]; no G4): 1650 ± 377 nM
- Ki ([8]; no G4): 850 ± 125 nM
- Ki [10]: 442 ± 74 nM

Binder: GGTTAGGGTTAGGGTTAGGGTTAGGGTTAG (structured_DNA) [hTelo]
- Ki ([3]; G4): 74 ± 12 nM
- Ki ([4]; G4): 1720 ± 302 nM
- Ki ([5]; G4): 212 ± 17 nM
- Ki ([6]; G4): 29 ± 4 nM
- Ki ([7]; G4): 276 ± 39 nM
- Ki ([8]; G4): 47 ± 9 nM

Binder: AAAAAAAAAAAAAAAAAAAAAAAA (ssRNA) [Poly A 24mer]
- Kd [11]: 498 ± 47.8 nM

Binder: UUAGGGUUAGGGUUAGGGUUAGGG (ssRNA) [TERRA (FAM), not folded (0 mM KCl)]
- Kd [12]: 37.1 ± 9.6 nM

Binder: UUACCGUUACCGUUACCGUUACCG (ssRNA) [TERRA-MUT (FAM)]
- Kd [13]: 108 ± 21.6 nM

Binder: AUUAUUAUUAUUAUUAUUAUUAUU (ssRNA) [AU-rich 24mer]
- Kd ([11]; unstructured): 42 ± 6.1 nM

Binder: UUAGGGUUAGGGUUAGGGUUAGGG (structured_RNA) [TERRA competitor]
- Ki ([3]; G4): 29 ± 4 nM
- Ki ([4]; G4): 978 ± 84 nM
- Ki ([5]; G4): 107 ± 14 nM
- Ki ([6]; G4): 17 ± 3 nM
- Ki ([7]; G4): 245 ± 35 nM
- Ki ([8]; G4): 30 ± 7 nM
